From IntAct's records for PubMed 19940251

B1: DNA replication regulator protein HobA (Helicobacter pylori), O25828 (parent)
chain: MKNFYDWIKEFVRDQGEFIAQQSGWLELERSSYAKLIAQTISHVLNGGSLLVSADSSRHWFLNYILSNLNPKDLKERPLLSVIDFNASSFYPKNDANLSLATIEMTYQNPMFWHVGKIENEGLKTILLSKIPSFLWLFEELKEDCLLLKEHDSLLDYKLLQLFKLFENALFSVLYNKVTL
partner: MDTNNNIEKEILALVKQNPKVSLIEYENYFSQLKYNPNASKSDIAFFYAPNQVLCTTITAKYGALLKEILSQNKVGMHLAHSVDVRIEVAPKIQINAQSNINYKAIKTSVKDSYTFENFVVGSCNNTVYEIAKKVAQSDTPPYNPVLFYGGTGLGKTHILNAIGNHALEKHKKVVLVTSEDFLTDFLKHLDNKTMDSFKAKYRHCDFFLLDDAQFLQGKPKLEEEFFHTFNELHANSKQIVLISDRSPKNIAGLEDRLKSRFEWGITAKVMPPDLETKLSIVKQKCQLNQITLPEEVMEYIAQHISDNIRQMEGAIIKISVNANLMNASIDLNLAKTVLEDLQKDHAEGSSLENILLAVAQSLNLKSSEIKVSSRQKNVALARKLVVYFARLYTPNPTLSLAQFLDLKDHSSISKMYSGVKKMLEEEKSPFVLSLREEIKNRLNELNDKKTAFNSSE

Variants of: B1
Details: with dnaa_helpy dnaA

| Variant | effect of a mutation on the interaction |
| --- | --- |
| H43R | disrupting interaction |
| L45P | disrupting interaction |
| F138L | disrupting interaction strength |
| F138S | disrupting interaction strength |
| R77C | decreasing interaction |
| L162P | disrupting interaction |
| S67P | disrupting interaction |
| I83M | decreasing interaction |
| I41T | disrupting interaction |
| L174P | disrupting interaction |
| V115D | disrupting interaction |
| D55G | disrupting interaction |
| L170P | disrupting interaction |
| I118T | disrupting interaction |
| Y107H | decreasing interaction |
| M111V | decreasing interaction |
| E119G | disrupting interaction |
| V44A | decreasing interaction |
| F112S | disrupting interaction |
| L146S | disrupting interaction |
| V82A | decreasing interaction |
| L128P | disrupting interaction |
| L51F | decreasing interaction |
| S99P | decreasing interaction |
| L141P | disrupting interaction |
| F61C | disrupting interaction |
| A169V | disrupting interaction |

Variants of: B1
Details: with dnaa_helpy dnaA
Remark: another data set of the same source

| Variant | effect of a mutation on the interaction |
| --- | --- |
| H43R | decreasing interaction |
| F138S | decreasing interaction |
| S67P | decreasing interaction |
| L137P | decreasing interaction |
| L127P | disrupting interaction |
| S88P | disrupting interaction |
| F166S | decreasing interaction |
| L51S | disrupting interaction strength |
| L51F | disrupting interaction strength |
| L69P | disrupting interaction |

Variants of: B1
Details: with dnaa_helpy dnaA
Remark: another data set of the same source

| Variant | effect of a mutation on the interaction |
| --- | --- |
| Y175E | disrupting interaction |
| L80R | disrupting interaction |
| E76A;R77A;P78A | disrupting interaction |
